The results in this text go back to US20200024330A1.

Common to all, as to experiment: cell-based or functional assay
Test [1] concerns the target HIV-1 IAVI-C22 envelope glycoprotein (Env) on pseudovirus (HIV-1).
The target of test [2] is HIV-1 APV-6 envelope glycoprotein (Env) on pseudovirus (HIV-1).
The target of test [3] is HIV-1 JR-CSF envelope protein (Env) on pseudotyped virus (HIV-1 isolate JR-CSF) (UniProt P20871).
In test [4] the target is HIV-1 92RW020 Env (pseudovirus) (HIV-1 92RW020).
The target in test [5] is HIV-1 JR-CSF Env, wild type (pseudovirus) (HIV-1 JR-CSF) (UniProt P20871).
Test [6] concerns the target HIV-1 MGRM-C-027 envelope glycoprotein (Env) (HIV-1).
The target in test [7] is HIV-1 Env of isolate MGRM-F1-018 (clade F), on pseudovirus (HIV-1).
Test [8] addresses HIV-1 Env of isolate MGRM-F1-004 (HIV-1).
The target of test [9] is HIV-1 MGRM-C-026 envelope glycoprotein (Env) (HIV-1).
Test [10] has as its target HIV-1 Env of isolate MGRM-C-026 (subtype C), on pseudovirus (HIV-1).
Test [11] deals with HIV-1 Env of isolate MGRM-C-024 (subtype C), on pseudovirus (HIV-1).
For test [12], the target named is HIV-1 envelope glycoprotein (Env) of isolate 6535.3, on pseudovirus (HIV-1).
Test [13] deals with HIV-1 envelope glycoprotein (Env) of isolate 93TH305, on pseudovirus (HIV-1).
The target of test [14] is HIV-1 Env of isolate MGRM-A-009 (HIV-1).
Test [15] has as its target HIV-1 NL43 envelope glycoprotein (Env) (HIV-1).
Test [16] concerns the target HIV-1 Env of isolate MG RM-AG-008 (HIV-1).
For test [17], the target named is HIV-1 Env of isolate MG RM-AG-013 (HIV-1).
Test [18] addresses HIV-1 APV17 envelope glycoprotein (Env) on pseudovirus (HIV-1).
Test [19] addresses HIV-1 Env of isolate 92UG005 (subtype D) (HIV-1).
Test [20] addresses HIV-1 MGRM-D-001 envelope glycoprotein (Env) on pseudovirus (HIV-1).
The target of test [21] is HIV-1 MGRM-A-010 Env (on pseudovirus) (HIV-1).
The target in test [22] is HIV-1 MGRM-C-026 Env (on pseudovirus) (HIV-1).
Test [23] concerns the target HIV-1 APV13 Env (on pseudovirus) (HIV-1).
For test [24], the target named is HIV-1 APV6 Env (on pseudovirus) (HIV-1).
Test [25] concerns the target HIV-1 MGRM-AG-005 Env (on pseudovirus) (HIV-1).
The target in test [26] is HIV-1 envelope glycoprotein (Env) of isolate MGRM-C-026, on pseudovirus (HIV-1).
In test [27] the target is HIV-1 Env of isolate MGRM-A-002 (HIV-1).
Test [28] deals with HIV-1 Env of isolate MGRM-A-008 (HIV-1).
Test [29] concerns the target HIV-1 Env of isolate MGRM-A-004 (HIV-1).

Chain of PGT-141 (4964_G22; 4993_K13) (antibody) (VH): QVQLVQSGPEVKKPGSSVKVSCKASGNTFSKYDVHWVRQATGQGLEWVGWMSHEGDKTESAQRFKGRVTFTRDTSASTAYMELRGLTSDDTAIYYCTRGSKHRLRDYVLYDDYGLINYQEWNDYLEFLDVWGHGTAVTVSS
Chain of PGT-141 (4964_G22; 4993_K13) (antibody) (VL): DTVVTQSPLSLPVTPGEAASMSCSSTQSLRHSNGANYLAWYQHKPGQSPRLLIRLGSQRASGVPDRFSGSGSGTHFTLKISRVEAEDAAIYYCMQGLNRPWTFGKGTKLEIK
Chain of PGT-144 (4970_K22) (antibody) (VH): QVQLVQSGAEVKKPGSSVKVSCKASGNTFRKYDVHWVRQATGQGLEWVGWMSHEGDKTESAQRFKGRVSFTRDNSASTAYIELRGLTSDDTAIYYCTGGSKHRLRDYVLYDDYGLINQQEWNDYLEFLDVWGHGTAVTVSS
Chain of PGT-144 (4970_K22) (antibody) (VL): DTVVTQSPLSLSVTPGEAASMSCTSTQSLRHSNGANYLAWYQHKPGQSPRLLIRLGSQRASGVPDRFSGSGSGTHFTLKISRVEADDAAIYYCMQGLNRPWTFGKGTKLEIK
Chain of 1443_C16 (PG16) (TCN-116) (antibody) (VH): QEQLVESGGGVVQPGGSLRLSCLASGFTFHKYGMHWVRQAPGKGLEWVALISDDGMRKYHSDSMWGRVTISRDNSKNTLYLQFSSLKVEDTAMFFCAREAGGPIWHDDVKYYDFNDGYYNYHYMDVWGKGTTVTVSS
Chain of 1443_C16 (PG16) (TCN-116) (antibody) (VL): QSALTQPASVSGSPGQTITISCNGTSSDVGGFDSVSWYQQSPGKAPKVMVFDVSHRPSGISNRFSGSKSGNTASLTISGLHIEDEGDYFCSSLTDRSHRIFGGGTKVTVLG
Chain of PGT-142 (4995_E20) (antibody) (VH): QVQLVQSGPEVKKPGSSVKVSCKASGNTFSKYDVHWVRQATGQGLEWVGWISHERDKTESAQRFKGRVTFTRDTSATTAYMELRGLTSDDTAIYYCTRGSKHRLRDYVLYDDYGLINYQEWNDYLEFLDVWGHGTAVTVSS
Chain of PGT-143 (4980_N08) (antibody) (VH): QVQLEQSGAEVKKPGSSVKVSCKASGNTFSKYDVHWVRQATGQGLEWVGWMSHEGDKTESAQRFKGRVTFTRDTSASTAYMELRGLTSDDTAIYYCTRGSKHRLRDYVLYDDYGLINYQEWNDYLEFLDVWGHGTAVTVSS
Chain of PGT-143 (4980_N08) (antibody) (VL): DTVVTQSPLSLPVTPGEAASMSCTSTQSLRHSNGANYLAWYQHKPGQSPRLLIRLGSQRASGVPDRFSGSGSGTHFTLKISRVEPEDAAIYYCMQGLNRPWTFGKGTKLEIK

The substance 2F5 (antibody) yielded an IC90 (pseudovirus neutralization) in [1] of over 50 µg/mL.

2G12 (antibody) showed an IC90 (pseudovirus neutralization) in [1] of over 50 µg/mL.

On to 4E10 (antibody), for which the IC90 (pseudovirus neutralization) in test [1] stood at 16.4 µg/mL.

In the case of 1443_C16 (PG16) (TCN-116) (antibody), the IC90 (pseudovirus neutralization) in test [2] is 44.3 µg/mL; in test [1], over 50 µg/mL. For the same substance, the IC50, pseudovirus neutralization, 1 hour Virus/Ab Incubation in [3] was under 0.0025 µg/mL. For the same substance, the IC50, pseudovirus neutralization, 18 hour Virus/Ab Incubation in test [3] was under 0.0025 µg/mL. Further, the IC50 (ug/ml), neutralization was determined as 0.09 µg/mL in test [4] and 0.001 µg/mL in test [5].

In test [3], 1495_C14 (PGC14) (antibody) showed an IC50, pseudovirus neutralization, 1 hour Virus/Ab Incubation of over 50 µg/mL and an IC50, pseudovirus neutralization, 18 hour Virus/Ab Incubation of over 50 µg/mL.

Consider 1496_C09 (PG9) (TCN-109) (antibody), for which, in test [2], the IC90 (pseudovirus neutralization) was found to be 1.96 µg/mL. The IC50 neutralization turned out to be 2.45 µg/mL in [6], 0.113 µg/mL in test [9] and 0.687 µg/mL in test [15]. In [3], this substance had an IC50, pseudovirus neutralization, 1 hour Virus/Ab Incubation of under 0.0025 µg/mL. Besides, the IC50, pseudovirus neutralization, 18 hour Virus/Ab Incubation in test [3] is under 0.0025 µg/mL. In test [7], this substance had an IC50 (µg/mL), single-round pseudovirus neutralization of 0.019 µg/mL. The results for the IC50 (µg/mL), pseudovirus neutralization in test [8], in test [10] and in [11] were 0.175 µg/mL, 0.06 µg/mL and 0.227 µg/mL, respectively. Moreover, the IC50, pseudovirus neutralization in test [12] stood at 1.05 µg/mL; in test [13], 8.12 µg/mL. Also, the IC50 (ug/ml), neutralization in test [4] was 0.1 µg/mL; in test [5], 0.006 µg/mL. The substance further had a half-inhibitory concentration (IC50) in [14] of 0.023 µg/mL.

On to 4858_P08 (PGT-123) (antibody), for which the neutralization IC50 in test [16] was 19.2 µg/mL. This substance returned a neutralization IC50 in test [17] of 3.37 µg/mL. In test [18], the IC50 (ug/ml), neutralizing activity was determined as 0.18 µg/mL; the IC50, pseudovirus neutralization was determined as 0.18 µg/mL; the IC80, pseudovirus neutralization was determined as 0.539 µg/mL; the IC90 (pseudovirus neutralization) was 1.01 µg/mL. Further, in test [18], the IC95, pseudovirus neutralization worked out at 1.75 µg/mL. The substance further registered an IC50 (µg/mL), pseudovirus neutralization in [19] of 9.79 µg/mL. In addition, in test [20], the IC50 (ug/ml), neutralizing activity was determined as 0.215 µg/mL; the IC50, pseudovirus neutralization is 0.215 µg/mL; the IC80, pseudovirus neutralization turned out to be 0.678 µg/mL; the IC90 (pseudovirus neutralization) was 1.31 µg/mL. This substance returned an IC95, pseudovirus neutralization in [20] of 2.33 µg/mL.

With 4877_D15 (PGT-122) (antibody), the neutralization IC50 in [16] was over 50 µg/mL; in [17], 0.521 µg/mL. Further, the IC50 (ug/ml), neutralizing activity in [18] was 0.522 µg/mL; in [20], 0.867 µg/mL. Moreover, the IC50 (µg/mL), pseudovirus neutralization in [19] is over 50 µg/mL.

In the case of 5123_A06 (PGT-125) (antibody), the neutralization IC50 in [16] is over 50 µg/mL. In addition, in [17], the neutralization IC50 was 0.004 µg/mL. Moreover, in [18], the IC50 (ug/ml), neutralizing activity stood at 7.31 µg/mL; the neutralization IC50 turned out to be 7.31 µg/mL; the neutralization IC80 is over 10 µg/mL; the neutralization IC90 is over 10 µg/mL. Further, in [18], the neutralization IC95 was over 10 µg/mL. This substance also returned an IC50 (µg/mL), pseudovirus neutralization in test [19] of over 50 µg/mL. Moreover, in test [20], the IC50 (ug/ml), neutralizing activity came to 2.31 µg/mL; the neutralization IC50 was determined as 2.31 µg/mL; the neutralization IC80 was over 10 µg/mL; the neutralization IC90 is over 10 µg/mL. In addition, the neutralization IC95 in test [20] is over 10 µg/mL.

With 5141_B17 (PGT-126) (antibody), the neutralization IC50 is over 50 µg/mL in test [16] and 0.008 µg/mL in test [17]. The IC50 (ug/ml), neutralizing activity in [18] is 0.501 µg/mL; in [20], 0.0639 µg/mL. The substance also had an IC50 (µg/mL), pseudovirus neutralization in [19] of 0.037 µg/mL.

As for 5145_B14 (PGT-127) (antibody), the neutralization IC50 in [16] was over 50 µg/mL; in [17] it was 0.018 µg/mL. In test [19], this substance showed an IC50 (µg/mL), pseudovirus neutralization of 1.11 µg/mL.

On to 5147_N06 (PGT-130) (antibody), for which the IC50 (ug/ml), neutralizing activity in test [18] and in [20] was over 10 µg/mL throughout.

Consider PGT-141 (4964_G22; 4993_K13) (antibody), for which the IC50 (ug/ml), pseudovirus neutralization is 0.0563 µg/mL in test [21]; over 10 µg/mL in test [22]; over 10 µg/mL in test [23]; 5.08 µg/mL in test [24]; 0.392 µg/mL in test [25]. In addition, the IC50, pseudovirus neutralization in test [26] is over 50 µg/mL.

Take PGT-142 (4995_E20) (antibody): the IC50 (ug/ml), pseudovirus neutralization in test [21] was 0.0578 µg/mL; in [22], over 10 µg/mL; in test [23], over 10 µg/mL; in [24] it was 5.42 µg/mL; in test [25], 0.22 µg/mL. In test [26], this substance had an IC50, pseudovirus neutralization of over 50 µg/mL.

Consider PGT-143 (4980_N08) (antibody), for which the IC50 (ug/ml), pseudovirus neutralization in [21] is 0.0657 µg/mL; in [22], over 10 µg/mL; in test [23] it was over 10 µg/mL; in [24], 4.43 µg/mL; in test [25] it was 0.244 µg/mL. In addition, in [26], the IC50, pseudovirus neutralization is over 50 µg/mL.

In the case of PGT-144 (4970_K22) (antibody), the IC50 (ug/ml), pseudovirus neutralization in test [21] was 4.02 µg/mL; in [22], over 10 µg/mL; in [23], over 10 µg/mL; in test [24] it was over 10 µg/mL; in test [25] it was over 10 µg/mL. This substance also came in with an IC50, pseudovirus neutralization in test [26] of over 50 µg/mL.

PGV04 (antibody): the half-inhibitory concentration (IC50) turned out to be 0.093 µg/mL in test [27], 0.555 µg/mL in [28], 0.175 µg/mL in test [29] and 0.033 µg/mL in test [14]. Further, the IC50 (µg/mL), single-round pseudovirus neutralization in [7] is 0.027 µg/mL. Moreover, the IC50 (µg/mL), pseudovirus neutralization was 0.58 µg/mL in test [8], 0.303 µg/mL in [10] and over 50 µg/mL in test [11]. Further, the IC50, pseudovirus neutralization in test [12] worked out at 0.757 µg/mL; in [13] it was 0.255 µg/mL.

For the substance VRC01 (antibody), the results for the IC50, pseudovirus neutralization in test [8] and in test [26] were 0.305 µg/mL and 0.707 µg/mL, respectively.

As to b12 (antibody), the results for the IC90 (pseudovirus neutralization) in test [2] and in test [1] were over 50 µg/mL and 29.6 µg/mL, respectively.

As a reminder, the IC50 is the concentration at which inhibition is half-maximal. A higher IC50 goes with weaker potency in that assay.
